# Test results: PMC3784475 (PLoS Pathogens, 2013)
# Experiments:
# [1] = target: HIV gp140 SF162 trimers (HIV (isolate SF162)); assay: SPR; HIV gp140 SF162 trimers amine-coupled on a CM5 chip (3250 RU); HCDR3-grafted Ubq fusions injected at 1 µM and 5 or 10 µM; HBS-EP+ (10 mM HEPES pH 7.4, 150 mM NaCl, 3 mM EDTA, 0.05% P20); 25°C; duplicate runs
# Strep-tagged Scn control = target: T1, Strep-tagged Scn control (Homo sapiens, UniProt P80188); assay: SPR; about 3000 RU of each Scn-peptide fusion or Strep-tagged Scn control amine-coupled on CM5 chips; 4E10 IgG injected at 300 nM in HBS-EP+ or HBS-EP+ at 500 mM NaCl; 25°C; responses normalised by specific activity; settings: both partners purified
# T1 construct: siderocalin (Scn), human; also called siderocalin construct minus peptide; not shown: Strep-tag, C-terminal, kept
Molecule,Kd [1] [µM],binding result (Strep-tagged Scn control)
2F5 HCDR3-grafted ubiquitin fusion (designed binder),> 10,–
4E10 HCDR3-grafted ubiquitin fusion (designed binder),> 10,–
b12 HCDR3-grafted ubiquitin fusion (designed binder),> 10,–
"4E10 IgG (antibody, V domains shown, variable domain in PDB 4LLV (4E10 Fv, solved here), 2FX7 (4E10 Fab) and 3H3P; IgG, the bivalent form; also called bNAb 4E10; Polymun AB004; source: bought: Polymun Scientific; copies: 2 + 2) VH: QVQLVQSGAEVKRPGSSVTVSCKASGGSFSTYALSWVRQAPGRGLEWMGGVIPLLTITNYAPRFQGRITITADRSTSTAYLELNSLRPEDTAVYYCAREGTTGWGWLGKPIGAFAHWGQGTLVTVSS VL: EIVLTQSPGTQSLSPGERATLSCRASQSVGNNKLAWYQQRPGQAPRLLIYGASSRPSGVADRFSGSGSGTDFTLTISRLEPEDFAVYYCQQYGQSLSTFGQGTKVEVK",–,no binding (tested: 300 nM)
